In the RNAGym collection of RNA variant scans (doi:10.7554/elife.80360) one finds self-cleavage data, which are given here for 167 variants.

First the molecules themselves.
B1: HDV Ribozyme (parent)
chain: GGCCGGCAUGGUCCCAGCCUCCUCGCUGGCGCCGGCUGGGCAACAUUCCGAGGGGACCGUCCCCUCGGUAAUGGCGAAUGGGACCCA

Variants of B1 are the subject of this data set. Briefly: self-cleavage, relative activity (ratio to wild type); higher = more cleavage; co-transcriptional.
For C49U A56G, the self-cleavage was determined as 1.04. For C49U A56C, the self-cleavage came out at 0.773.

As to A51G C66G, the self-cleavage was determined as 0.989. Take A51G C66U: the self-cleavage worked out at 0.89. The value for A51G C66A was 0.889. With G50A G52C the figure was 0.672; with A51G G53C, 0.665; with A51G G53U, 0.795. For A51G G68U, the self-cleavage came to 0.831. The value for A51C G52U was 0.601; that for A51C G52C was 0.332.

Turning to A51C G52A, the self-cleavage was 1.04. Regarding G50C G52C, the self-cleavage is 0.554. With G50C G52A the figure was 0.66. With G50C G52U the figure was 0.554. As to G50U A87U, the self-cleavage was 0.85. Turning to G50U A87G, the self-cleavage was determined as 0.927.

As for G50A U72C, the self-cleavage turned out to be 0.45. As to C49U C85G, the self-cleavage came out at 0.876. In the case of C49U C85U, the self-cleavage was found to be 0.799.

In the case of C49U U72A, the self-cleavage came to 0.965. With C49U U72G the figure was 0.745; with C49U U72C, 0.554. With C49U G74U the figure was 0.507; with A51C A87U, 0.881; with G50A A77C, 0.227.

For the variant G50A A70G, the self-cleavage is 0.763.

As to G50A A70U, the self-cleavage was determined as 1.05. The value for G50A A70C was 0.763. With A51C G54U, the self-cleavage stood at 0.659. With A51C G54A, the self-cleavage stood at 0.716.

Turning to A51G C64A, the self-cleavage turned out to be 0.47. On to A51G C62A, for which the self-cleavage stood at 0.812. For A51G C62G, the self-cleavage was 0.739. With G50A U79A, the self-cleavage is 0.88.

In the case of G50A U79G, the self-cleavage turned out to be 0.629. The value for G50A U79C was 0.486; that for G50U G59A was 0.852; that for G50U G59C was 1.14.

Regarding A51C A83U, the self-cleavage came to 0.609.

Take A51C A83G: the self-cleavage was 0.673. The value for G50A A83U was 0.486.

With G50A A83G, the self-cleavage worked out at 0.99. With G50U G68C the figure was 0.465; with G50U G68A, 0.694. For the variant A51G, the self-cleavage came out at 0.948.

As for A51C, the self-cleavage came to 0.972.

For A51G G80C, the self-cleavage is 0.141. The value for A51G G80U was 0.229; that for A51G C84U was 0.975; that for A51G C84G was 0.332. The value for A51C C63U was 1.05; that for G50U A78G was 0.776.

G50U A78C: the self-cleavage amounted to 0.373. A51C U69A: the self-cleavage came out at 1.13. With A51C U69C the figure was 0.931; with A51C U69G, 1.15; with G50A U60C, 0.945. With G50A U60G, the self-cleavage came to 0.514. The value for G50A C62U was 0.926; that for G50C U72G was 0.415; that for C49U C61G was 0.731. With C49U C61A the figure was 0.76; with A51G A77G, 1.02. The value for G50U G74U was 0.427; that for C49U G73U was 0.509. As to A51C G55U, the self-cleavage was determined as 0.944. For A51C G55C, the self-cleavage was determined as 0.7. With C49U C64U the figure was 1.05.

Turning to C49G U79A, the self-cleavage amounted to 0.895. The value for C49G U79G was 0.762; that for G50U G73U was 0.402. With A51G A70U the figure was 1.22; with A51G A70C, 0.974; with G50U A71G, 0.78. As for G50U A71C, the self-cleavage came to 0.435.

Consider C49U A70C, for which the self-cleavage was 0.782. Turning to C49U A70U, the self-cleavage came to 0.877. The value for C49U A70G was 0.748; that for G50C U60C was 1.13.

With G50U G82C, the self-cleavage was determined as 0.435. On to A51C A56C, for which the self-cleavage amounted to 0.703. For G50C A83G, the self-cleavage amounted to 0.491.

Take G50C A83U: the self-cleavage is 0.504.

As to C49U U65A, the self-cleavage is 0.966. The value for G50U A77G was 0.639.

As to A51C G74C, the self-cleavage was 0.196.

On to A51C G74A, for which the self-cleavage was found to be 0.479. With A51C G74U the figure was 0.383. The value for C49U C84U was 0.676. G50A C58A: the self-cleavage is 1.12.

As for G50A C58G, the self-cleavage was 0.909. With G50A C58U the figure was 0.919; with G50C G76A, 0.915. For G50C G76C, the self-cleavage came to 1.08. Take G50C G81A: the self-cleavage is 0.443. With A51G G81A the figure was 0.285; with A51C G68U, 0.782; with C49U A77U, 0.297. With C49U A77G, the self-cleavage came out at 0.95.

As to G50C C64G, the self-cleavage came out at 0.383. The value for G50C C64U was 0.728. With G50C U69C, the self-cleavage stood at 1.07. With G50U A70G the figure was 0.846; with G50U A70C, 0.795; with A51G C58U, 0.95.

With A51G C58A, the self-cleavage stood at 0.98. Turning to G50C A71U, the self-cleavage turned out to be 0.554.

With G50C A71C, the self-cleavage was 0.252. Turning to G50U C86U, the self-cleavage was determined as 0.751. With A51C C64A the figure was 0.764; with A51C C57U, 0.969.

For the variant A51G A83G, the self-cleavage stood at 0.916. As to A51G A83U, the self-cleavage came to 0.356.

On to G50A C75A, for which the self-cleavage turned out to be 0.178.

Turning to G50A C75U, the self-cleavage turned out to be 0.178. On to C49U G54U, for which the self-cleavage turned out to be 0.87. The value for C49U G54C was 0.856. With G50C A70G the figure was 0.917; with G50C A70U, 0.8; with G50C A70C, 0.517. The value for C49U G53C was 1.05; that for C49U G53A was 0.916. As for A51C G73C, the self-cleavage is 0.293.

Turning to A51C G73U, the self-cleavage amounted to 0.567. For A51C G80A, the self-cleavage stood at 0.345.

Regarding C49U A71G, the self-cleavage stood at 1.16. The value for C49U A71U was 0.875. With C49U A71C the figure was 0.641. Turning to A51C A77C, the self-cleavage was 0.266. The value for G50U U79A was 0.831; that for G50U U79G was 0.802.

A51C A71G: the self-cleavage was found to be 0.918. As to A51C A71U, the self-cleavage was 0.892. With A51G G55A the figure was 0.972; with G50U C57A, 0.911; with G50U C57U, 1.17. Take G50U C57G: the self-cleavage came out at 0.986. The value for G50A G59A was 1.03. Turning to G50A G59U, the self-cleavage came out at 1.18.

Turning to G50A A56U, the self-cleavage is 1.06. Regarding A51G U60C, the self-cleavage stood at 0.931. The value for A51G U60A was 0.852. As for G50A C63A, the self-cleavage stood at 0.436. For the variant G50A C63G, the self-cleavage was 0.0475. With A51G C57U the figure was 0.85; with A51C U60G, 0.95.

Regarding G50A G54A, the self-cleavage was determined as 0.726. For the variant C49U G50A, the self-cleavage stood at 1.05. The value for C49U G50C was 0.991. In the case of A51C C75G, the self-cleavage is 0.415. With G50A G76C the figure was 0.98. Turning to G50A G76A, the self-cleavage is 1.05. Regarding C49U G76U, the self-cleavage amounted to 1.18. With C49U G76A the figure was 1.08.

As for A51C C85G, the self-cleavage was found to be 0.831. A51C C85A: the self-cleavage came out at 0.755. With A51C C85U the figure was 0.898; with G50U U72C, 0.487; with G50U U72A, 0.554. As to G50U U72G, the self-cleavage was found to be 0.415.

Regarding G50C U79G, the self-cleavage was determined as 0.723.

Consider G50C U79A, for which the self-cleavage amounted to 0.739.

With G50C U79C, the self-cleavage stood at 0.554. As for G50U G55A, the self-cleavage turned out to be 1.11. With A51G A87U the figure was 0.952. With G50U C63A the figure was 0.57.
